This is an account of results in patent US20250270566A1, “DUAL-SPECIFICITY RNA ATPAMERS FOR REGULATING O-GLCNACYLATION” (University of Georgia Research Foundation, Inc., published 2025).

The target of one data set is β-catenin (UniProt P35222 P35222:1-781). Kind of data set: SPR; intracellular buffer (20 mM HEPES, 110 mM KCl, 10 mM NaCl, 0.4 mM MgCl2, 5 mM KH2PO4, pH 7.2), 25 C. The note with it: tags: His tag (Ni-NTA purified, pET28a-β-catenin, E. coli). The method, then:
Total PLA puncta was counted and normalized to the number of nuclei in each view. Student's t-test was performed. N=8. […] Nucleus and cytoplasm of cells stably expressing 3JB8F+12 was isolated, and RNA in each fraction was quantified by RT-qPCR. RNA abundances were normalized to that of 3JB8F+12 in whole cell lysate (purple bar in upper panel). NEAT1 is a nuclear RNA control, and GAPDH is a cytoplasmic RNA control. Cyt.—Cytoplasm. Nuc.—Nucleus. W.C.—Whole Cell. N=4. T1·bc339—Individual T1 and bc339 aptamers (control). NL8F50/70/100—DS aptamers (T1-linker-bc339) with flexible linkers of 50/70/100 nt. 3JB8F—DS aptamers (T1-linker-bc339) with folded linkers. +4/+12, serial additions (bp) into the folded linker. Quantitated data are normalized to the control group (T1·bc339). Aptamers were expressed from plasmids, and One-way ANOVA test was performed unless indicated. Data are represented as mean±SD. ns, p≥0.05; *, p<0.05; **, p<0.01; ***, p<0.001; ****, p<0.0001.
For SPR, Multi Cycle Kinetics was performed according to (Chang, A. L., et al. Methods Enzymol 2014 549:451-466) on a Biacore T100 (GE Healthcare/Cytiva) instrument at 25° C. […] Data was analyzed using the Biacore Evaluation Software (GE Healthcare/Cytiva), where the overlaid sensorgrams were fitted into a 1:1 binding model.
In general terms: Surface plasmon resonance follows binding to a sensor surface in real time, without labels.

Data set [1] addresses T1, ncOGT full-length (OGT-FL, nucleocytoplasmic O-GlcNAc transferase) (UniProt O15294 O15294:1-1046).
T1 sequence: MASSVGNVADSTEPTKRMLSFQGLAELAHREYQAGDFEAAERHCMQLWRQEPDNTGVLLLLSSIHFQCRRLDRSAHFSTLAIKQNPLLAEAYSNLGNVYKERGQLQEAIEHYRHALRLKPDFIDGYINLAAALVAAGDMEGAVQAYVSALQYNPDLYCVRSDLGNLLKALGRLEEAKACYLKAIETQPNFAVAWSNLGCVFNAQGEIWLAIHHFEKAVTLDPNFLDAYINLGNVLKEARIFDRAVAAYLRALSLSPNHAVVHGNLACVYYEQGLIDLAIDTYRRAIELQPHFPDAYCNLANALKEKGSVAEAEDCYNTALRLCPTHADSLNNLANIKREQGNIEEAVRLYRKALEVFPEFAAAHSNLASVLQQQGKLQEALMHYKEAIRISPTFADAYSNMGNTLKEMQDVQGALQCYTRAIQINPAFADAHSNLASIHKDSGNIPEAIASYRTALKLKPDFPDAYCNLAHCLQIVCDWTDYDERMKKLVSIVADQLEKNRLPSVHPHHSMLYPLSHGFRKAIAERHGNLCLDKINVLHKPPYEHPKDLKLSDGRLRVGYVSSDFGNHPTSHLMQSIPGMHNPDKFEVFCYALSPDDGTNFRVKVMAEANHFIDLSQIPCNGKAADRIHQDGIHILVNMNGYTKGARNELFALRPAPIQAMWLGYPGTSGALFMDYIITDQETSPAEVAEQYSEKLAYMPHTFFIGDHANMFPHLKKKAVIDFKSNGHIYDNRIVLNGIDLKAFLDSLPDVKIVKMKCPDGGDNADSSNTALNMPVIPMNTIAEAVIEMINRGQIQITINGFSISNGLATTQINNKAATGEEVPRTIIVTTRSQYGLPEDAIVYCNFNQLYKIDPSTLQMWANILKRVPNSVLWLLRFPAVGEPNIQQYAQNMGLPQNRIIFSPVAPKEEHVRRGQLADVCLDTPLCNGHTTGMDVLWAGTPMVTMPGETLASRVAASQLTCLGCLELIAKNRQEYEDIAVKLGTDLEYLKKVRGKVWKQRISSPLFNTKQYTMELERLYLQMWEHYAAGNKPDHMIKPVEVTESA
Briefly: SPR; ABB (20 mM Tris-HCl, 150 mM NaCl, 5 mM MgCl2, 0.05% Tween-20, pH 7.5), 25 C, 1:1 model. The note with it: tags: His tag (Ni-NTA purified, pET24a-ncOGT-FL, E. coli). The method, then:
T1 was included in the indicated reactions (orange) from 2 μM to 7.8 nM in 2× serial dilution. Data were normalized to the positive control reaction (red). One-way ANOVA test was performed. […] OGT was immunoprecipitated from lysate of T1-expressing cells, using buffers with Mg²⁺ (left) or without Mg²⁺ (right). Then the OGT-bound T1 was quantified by RT-qPCR. Data were normalized to the IgG groups. One-way ANOVA test was performed. RT—Reverse Transcriptase. N=3. […] N=3. […] Cells stably expressing T1 were treated with ActD for the indicated periods. Abundance of T1 was quantified by RT-qPCR (left) and normalized to that of 18S rRNA (right) and initial timepoint (T=0). Data were fitted to a one-phase decay model (curve). N=3. Data are represented as mean±SD. ns, p≥0.05; ****, p<0.0001.
For SPR, Multi Cycle Kinetics was performed according to (Chang, A. L., et al. Methods Enzymol 2014 549:451-466) on a Biacore T100 (GE Healthcare/Cytiva) instrument at 25° C. In assay preparation, an amine-modified T24 DNA linker (NH2-T24) was immobilized to approximately 100 RU in both reference and test flow cells on a sensorchip PEG (GE Healthcare/Cytiva 29239810), using the Amine Coupling Kit (GE Healthcare/Cytiva BR100050). […] Data was analyzed using the Biacore Evaluation Software (GE Healthcare/Cytiva), where the overlaid sensorgrams were fitted into a 1:1 binding model.

Data set [2] concerns the target T1, ncOGT full-length (OGT-FL, …). Briefly: FP filter; radiolabeled dot blot (nitrocellulose filter), ABB with 5 mM MgCl2, 37 C, yeast tRNA and BSA competitors. The note with it: tags: His tag (Ni-NTA purified, pET24a-ncOGT-FL, E. coli); label: 5'-32P (dot blot). The method, then:
Radiolabeled RNA was diluted in ABB, denatured at 65° C. for 5 min and re-folded at room temperature for 5 min. Then 100 nM of RNA was incubated with multiple concentrations (see Figure legends) of purified ncOGT at 37° C. for 30 min. The volume of each assay was 50 μL. 1 μM yeast tRNA (Invitrogen AM7119) and 50 μg/mL Bovine Serum Albumin (BSA, NEB B9001S) were included as non-specific competitors. After incubation, the reactions were filtered sequentially through a nitrocellulose membrane (Amersham 10600042) and a Nylon membrane (Invitrogen AM10102), on a Bio-Dot Microfiltration Apparatus (Bio-Rad 170-6545). Membranes were washed with 100 μL ABB to remove unbound RNA. Washed membranes were air-dried and exposed to a film (Amersham 28906836) for 2 hr. The film was developed and scanned, and the image was analyzed with Fiji (Schindelin, J., et al. Nat Methods 2012 9:676-682). Quantified data was fitted into a Michaelis-Menten model using GraphPad Prism.

In a further data set the target is T2, EP300 (UniProt Q09472 2-2414).
T2 construct: Endogenous protein in HEK293T cells
T2 sequence (Q09472 2-2414 limits assumed): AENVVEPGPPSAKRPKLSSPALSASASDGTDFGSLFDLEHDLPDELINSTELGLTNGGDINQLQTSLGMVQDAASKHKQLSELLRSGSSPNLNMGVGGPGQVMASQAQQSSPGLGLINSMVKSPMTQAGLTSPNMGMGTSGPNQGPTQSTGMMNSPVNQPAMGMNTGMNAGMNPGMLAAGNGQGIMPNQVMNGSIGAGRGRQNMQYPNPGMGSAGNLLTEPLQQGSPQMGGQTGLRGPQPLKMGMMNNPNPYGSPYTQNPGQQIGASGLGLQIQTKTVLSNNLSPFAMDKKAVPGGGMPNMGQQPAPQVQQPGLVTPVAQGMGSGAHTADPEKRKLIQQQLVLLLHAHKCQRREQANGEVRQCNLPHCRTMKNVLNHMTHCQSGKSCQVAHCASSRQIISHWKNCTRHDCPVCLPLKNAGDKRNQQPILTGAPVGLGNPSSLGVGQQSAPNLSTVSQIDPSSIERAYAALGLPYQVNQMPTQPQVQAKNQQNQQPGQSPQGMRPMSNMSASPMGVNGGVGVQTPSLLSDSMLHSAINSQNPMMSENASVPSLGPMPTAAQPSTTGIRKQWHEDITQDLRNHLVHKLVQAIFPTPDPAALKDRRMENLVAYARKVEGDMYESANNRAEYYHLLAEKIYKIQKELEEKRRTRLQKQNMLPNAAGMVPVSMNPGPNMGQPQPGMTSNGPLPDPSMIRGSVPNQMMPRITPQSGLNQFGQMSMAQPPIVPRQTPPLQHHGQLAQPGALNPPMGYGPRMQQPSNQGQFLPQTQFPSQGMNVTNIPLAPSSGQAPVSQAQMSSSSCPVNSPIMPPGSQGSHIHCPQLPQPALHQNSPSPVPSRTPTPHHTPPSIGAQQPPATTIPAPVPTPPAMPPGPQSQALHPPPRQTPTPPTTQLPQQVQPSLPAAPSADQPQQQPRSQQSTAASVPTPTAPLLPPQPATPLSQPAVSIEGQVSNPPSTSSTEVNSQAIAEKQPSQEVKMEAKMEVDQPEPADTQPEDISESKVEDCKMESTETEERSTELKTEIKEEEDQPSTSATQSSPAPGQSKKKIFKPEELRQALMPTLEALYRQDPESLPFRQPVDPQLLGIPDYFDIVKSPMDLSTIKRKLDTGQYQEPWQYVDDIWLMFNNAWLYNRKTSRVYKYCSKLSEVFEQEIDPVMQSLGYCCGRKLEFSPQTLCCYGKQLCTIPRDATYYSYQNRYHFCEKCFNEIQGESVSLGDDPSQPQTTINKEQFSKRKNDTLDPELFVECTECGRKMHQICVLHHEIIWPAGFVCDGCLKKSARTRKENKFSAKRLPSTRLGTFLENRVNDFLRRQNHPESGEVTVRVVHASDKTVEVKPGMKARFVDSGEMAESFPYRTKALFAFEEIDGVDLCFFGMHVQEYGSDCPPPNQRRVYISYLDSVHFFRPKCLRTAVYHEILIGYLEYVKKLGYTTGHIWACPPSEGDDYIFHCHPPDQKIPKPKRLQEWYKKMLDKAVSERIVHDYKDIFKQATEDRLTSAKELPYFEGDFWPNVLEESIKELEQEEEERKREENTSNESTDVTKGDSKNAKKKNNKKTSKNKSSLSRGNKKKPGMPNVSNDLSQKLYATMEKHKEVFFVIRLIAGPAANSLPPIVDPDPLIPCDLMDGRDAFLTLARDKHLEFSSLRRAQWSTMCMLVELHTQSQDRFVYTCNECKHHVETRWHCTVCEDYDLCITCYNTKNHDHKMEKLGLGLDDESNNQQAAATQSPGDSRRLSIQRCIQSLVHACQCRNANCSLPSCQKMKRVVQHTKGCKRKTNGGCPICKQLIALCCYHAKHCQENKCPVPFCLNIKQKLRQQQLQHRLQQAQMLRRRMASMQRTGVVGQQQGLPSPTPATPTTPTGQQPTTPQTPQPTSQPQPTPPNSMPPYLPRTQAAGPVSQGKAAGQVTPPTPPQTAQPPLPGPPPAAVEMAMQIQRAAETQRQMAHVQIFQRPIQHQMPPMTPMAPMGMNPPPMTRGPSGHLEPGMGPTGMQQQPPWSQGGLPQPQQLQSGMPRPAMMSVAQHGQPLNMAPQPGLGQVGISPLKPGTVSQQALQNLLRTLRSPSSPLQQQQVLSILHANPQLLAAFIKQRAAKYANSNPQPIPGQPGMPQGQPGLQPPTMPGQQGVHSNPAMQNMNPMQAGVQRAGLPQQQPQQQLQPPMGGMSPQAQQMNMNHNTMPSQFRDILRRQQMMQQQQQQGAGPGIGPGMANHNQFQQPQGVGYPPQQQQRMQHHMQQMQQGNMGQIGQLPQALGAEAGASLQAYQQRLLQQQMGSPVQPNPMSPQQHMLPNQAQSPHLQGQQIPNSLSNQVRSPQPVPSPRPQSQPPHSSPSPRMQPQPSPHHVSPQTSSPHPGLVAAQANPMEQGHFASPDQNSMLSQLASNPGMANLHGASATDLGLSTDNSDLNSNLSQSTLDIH
Briefly: PLA with antibodies to β-catenin and EP300, confocal images of HEK293T cells, -Wnt, T1 • bc339 or 3JB8F+12. As for the experimental part:
FIGS. 13A to 13P show O-GlcNAc regulates β-catenin's interactions with other epigenetic modifiers and β-TrCP. FIGS. 13A to 13F contain confocal images of PLA on HEK293T cells. Cells were transfected with plasmids encoding the control aptamers (T1·bc339) or a DS aptamer (3JB8F+12), and stimulated with regular (−Wnt) or Wnt3A-conditioned (+Wnt) medium. PLA was performed with antibodies targeting β-catenin and EP300, KAT5, or β-TrCP. FIGS. 13G and 13H contain confocal images of the negative control experiments of PLA. Cells were treated with regular (−Wnt) or Wnt3A-conditioned (+Wnt) medium. PLA was performed with the antibody targeting β-catenin and normal rabbit IgG. FIGS. 13I to 13P show quantification of FIGS. 13A to 13H. Nuclear or total PLA puncta were counted and normalized to the number of nuclei in each view. N=10 (I to N) or N=5 (O to P). Student's t-test was performed. Data are represented as mean±SD. **, p<0.01; ***, p<0.001. T1·bc339—Individual T1 and bc339 aptamers (control). 3JB8F+12—A DS aptamer (T1-linker-bc339) with a folded linker.

Another data set concerns the target T3, KAT2A (GCN5) (UniProt Q92830 2-837).
T3 construct: Endogenous protein in HEK293T cells; also called KAT2A/GCN5L2
Kind of data set: PLA with antibodies to β-catenin and KAT2A, confocal images of HEK293T cells, -Wnt, T1 • bc339 or 3JB8F+12. As for the experimental part: FIGS. 12A to 12P show O-GlcNAc regulates β-catenin's interactions with KAT2A. FIGS. 12A to 12H contain confocal images of Proximity Ligation Assay (PLA) on HEK293T cells. Cells were transfected with plasmids encoding the control aptamers (T1·bc339) or a DS aptamer (3JB8F+12 or 3JB8R+12) and stimulated with regular (−Wnt) or Wnt3A-conditioned (+Wnt) medium. PLA was performed with antibodies targeting […] and KAT2A or H3K9ac. In FIGS. 12C and 12D, cells were treated with 50 μM Ac5S for 20 hr. FIGS. 12I to 12P show quantification of FIGS. 12A to 12H. PLA puncta in nucleus were counted and normalized to the number of nuclei in each view. Student's t-test was performed. Data are represented as mean±SD. ns, p≥0.05; ***, p<0.001; ****, p<0.0001. N=10. T1·bc339—Individual T1 and bc339 aptamers (control). 3JB8F+12/R+12—DS aptamers (T1-linker-bc339) with folded linkers.

T3 sequence (Q92830 2-837 limits assumed): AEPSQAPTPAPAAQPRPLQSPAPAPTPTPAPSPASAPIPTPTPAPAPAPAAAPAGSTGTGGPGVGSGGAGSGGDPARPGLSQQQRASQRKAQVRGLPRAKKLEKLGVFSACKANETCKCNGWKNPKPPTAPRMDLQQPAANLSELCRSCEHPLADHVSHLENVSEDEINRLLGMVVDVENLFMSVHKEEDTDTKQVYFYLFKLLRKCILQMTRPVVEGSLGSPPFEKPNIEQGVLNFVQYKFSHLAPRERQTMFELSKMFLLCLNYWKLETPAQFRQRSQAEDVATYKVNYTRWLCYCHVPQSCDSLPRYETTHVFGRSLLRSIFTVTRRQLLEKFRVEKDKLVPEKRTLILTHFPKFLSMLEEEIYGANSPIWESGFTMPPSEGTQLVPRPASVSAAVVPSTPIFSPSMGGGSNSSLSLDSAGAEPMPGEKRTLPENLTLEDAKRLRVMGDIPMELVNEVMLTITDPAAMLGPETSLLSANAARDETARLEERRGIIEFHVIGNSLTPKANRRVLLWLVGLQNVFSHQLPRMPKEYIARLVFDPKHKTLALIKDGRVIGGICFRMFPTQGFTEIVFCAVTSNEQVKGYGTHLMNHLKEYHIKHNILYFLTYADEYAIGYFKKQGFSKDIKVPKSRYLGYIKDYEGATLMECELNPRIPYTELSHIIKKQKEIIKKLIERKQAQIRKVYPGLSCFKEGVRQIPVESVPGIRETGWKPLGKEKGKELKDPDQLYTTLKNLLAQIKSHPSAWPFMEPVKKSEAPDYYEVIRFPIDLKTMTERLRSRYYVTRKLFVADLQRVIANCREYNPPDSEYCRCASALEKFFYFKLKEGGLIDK

B1: bc339 with 3' A28 tail (ssRNA)
RNA: AGCUUCUGGGCGGCGAUGAGAUGACGUGUGCGGUGGUCGAGAGGUACCUUGGGUGAGGGAAGGGAAGGGAGGUUGACCACUGCGUGACUGCCCAGAAGCU
For orientation: Kd means the concentration at which binding is half-saturated. Lower therefore signals higher affinity. In the data set with β-catenin, B1 returned a dissociation constant Kd of 16 nM.

B2: T1 with 3' A28 tail (ssRNA)
RNA: GGGAGAAUCACUUACGGAUCCUCGUUAAGUGGCUCUCAGUCGCCCGUAACUCCGAUGCCGAUGCAGCGGCGACAACUGCACCCAAGGCUCGGAAGCUU
In data set [1], B2 gave a Kd of 60.5 nM.

B3: T1 (ssRNA)
RNA: B2 RNA
Regarding B3, the Kd in data set [2] was roughly 60 nM.

B4: β-catenin (endogenous, in HEK293T cells) (other, UniProt P35222 2-781, looked up)
chain: ATQADLMELDMAMEPDRKAAVSHWQQQSYLDSGIHSGATTTAPSLSGKGNPEEEDVDTSQVLYEWEQGFSQSFTQEQVADIDGQYAMTRAQRVRAAMFPETLDEGMQIPSTQFDAAHPTNVQRLAEPSQMLKHAVVNLINYQDDAELATRAIPELTKLLNDEDQVVVNKAAVMVHQLSKKEASRHAIMRSPQMVSAIVRTMQNTNDVETARCTAGTLHNLSHHREGLLAIFKSGGIPALVKMLGSPVDSVLFYAITTLHNLLLHQEGAKMAVRLAGGLQKMVALLNKTNVKFLAITTDCLQILAYGNQESKLIILASGGPQALVNIMRTYTYEKLLWTTSRVLKVLSVCSSNKPAIVEAGGMQALGLHLTDPSQRLVQNCLWTLRNLSDAATKQEGMEGLLGTLVQLLGSDDINVVTCAAGILSNLTCNNYKNKMMVCQVGGIEALVRTVLRAGDREDITEPAICALRHLTSRHQEAEMAQNAVRLHYGLPVVVKLLHPPSHWPLIKATVGLIRNLALCPANHAPLREQGAIPRLVQLLVRAHQDTQRRTSMGGTQQQFVEGVRMEEIVEGCTGALHILARDVHNRIVIRGLNTIPLFVQLLYSPIENIQRVAAGVLCELAQDKEAAEAIEAEGATAPLTELLHSRNEGVATYAAAVLFRMSEDKPQDYKKRLSVELTSSLFRTEPMAWNETADLGLDIGAQGEPLGYRQDDPSYRSFHSGGYGQDALGMDPMMEHEMGGHHPGADYPVDGLPDLGHAQDLMDGLPPGDSNQLAWFDTDL
modifications: O-GlcNAc at varying levels (raised by the DS aptamer 3JB8F+12); sites not fully mapped
notes: Endogenous protein detected in fixed cells (PLA) or cell lysate (Co-IP) with an anti-β-catenin antibody; HEK293T is a human cell line; also called endogenous β-catenin
Regarding B4, the binding result in the data set with EP300 and with KAT2A (GCN5) was “binds” in each case.
